Measurements taken from the supplement of paper PMC9732359.
± gives the uncertainty stated by the source.

Assay: protein stability index of a GFP-peptide fusion (yeast GPS) (PSI 1-4); higher = more stable; sorted into four equal gates, so the index is relative within each strain
Settings: pdr5∆
In short: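 Yeast carrying a pooled library were grown to mid-log phase in leucine-free medium. Each library plasmid expresses Cherry and has a tiled 17-residue yeast protein peptide fused downstream of GFP. Cells were sorted into four equal gates by GFP/Cherry ratio, and plasmids from each gate were PCR-amplified, Illumina-sequenced and assigned to strains by barcode. Summing, across gates, the read frequency times the gate number gave each peptide's protein stability index.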
KRAEKKAKERLQALKAN [SNF2] gave a protein stability index of 2.6 ± 0.15.

Same assay, conditions: san1∆
KEIRAFDKLLNIPRREL [SRB4] showed a protein stability index of 2.73 ± 0.08.
With KELEPWDLQLQEKESQI [SMC4] the protein stability index was 3.21 ± 0.12.
Work on KENEESLTPTQSDSAKV [PRP28] yielded a protein stability index of 2.9 ± 0.095.
Sequence KEQTIQLPSKFTCSCNS [RPN14] has a protein stability index of 1.96 ± 0.063.
Sequence KFGLLLQVSAQERKDFL [ECM29] has a protein stability index of 1.59 ± 0.2.
KFLNFRPPNGIKNFKSL [SSN2] gave a protein stability index of 2.16 ± 0.061.
In the case of KFSERRKALPKEPKKLL [DSN1], the protein stability index is reported as 2.52 ± 0.11.
In the case of KGIAKEHAKWGPAAAIE [RPB3], the protein stability index is reported as 3.06 ± 0.13.
In the case of KGKDFEITAKEVYDFTH [FAS1], the protein stability index is reported as 2.97 ± 0.052.
KGLETIDNGAESSENEA [RPC53] gave a protein stability index of 3.14 ± 0.1.
KGNVGFVFTNEPLTEIK [RPP0] gave a protein stability index of 2.06 ± 0.21.
Sequence KGRYAPETGDHVVGRIA [RRP4] has a protein stability index of 2.6 ± 0.11.
Sequence KGVATTREKVLEDKLRA [RRP46] has a protein stability index of 2.71 ± 0.23.
Work on KGVGRRYSNLVCKKADV [RPS18A] yielded a protein stability index of 1.74 ± 0.1.
In the case of KHDSLRYRLLSDVSDFE [RPN1], the protein stability index is reported as 2.75 ± 0.089.
Work on KHFIQGGSFGNREEFIN [RPL7A] yielded a protein stability index of 1.21 ± 0.23.
KHSVTEYIFEAHEIIKR [CDC53] showed a protein stability index of 2.68 ± 0.075.
KIDIIELQKSLSLEEVE [FAS1] showed a protein stability index of 2.52 ± 0.077.
Work on KILRDNIQGITKPAIRR [HHF1] yielded a protein stability index of 3.08 ± 0.055.
For KILSPTMYMEVYTAIYN [CDC53], the protein stability index was 1.63 ± 0.08.
In the case of KILVLTGAGVSTSLGIP [SIR2], the protein stability index is reported as 2.76 ± 0.054.
For KINPFGFEQVKIALGSP [RRI2], the protein stability index was 2.77 ± 0.068.
With KIPLPEVHDLIGFITSG [POP1] the protein stability index was 1.88 ± 0.18.
Sequence KIQETELKIRSKTENVR [RPT6] has a protein stability index of 2.23 ± 0.16.
KIRITLTSTKVKQLENV [RPS20] showed a protein stability index of 1.94 ± 0.11.
Sequence KIRPWRTFRLNECVCTP [RPO31] has a protein stability index of 1.73 ± 0.18.
KISEDPVKALNECIAST [SNF12] gave a protein stability index of 2.62 ± 0.068.
With KISGGNDKQGFPMKQGV [RPS6A] the protein stability index was 3.01 ± 0.059.
Work on KITIGIQRTTESLILKW [RGR1] yielded a protein stability index of 1.49 ± 0.078.
KKFDISNDNLDLISEIL [MED1] showed a protein stability index of 2.84 ± 0.061.
With KKHKQKKVLEIDFFKTD [BRN1] the protein stability index was 2.83 ± 0.039.
Work on KKIVDDTIMENPEPNKK [IRR1] yielded a protein stability index of 2.53 ± 0.084.
Sequence KKKDPVNQDKANNASQI [SNF12] has a protein stability index of 3.19 ± 0.075.
KKLSKKYNAFIASEVLI [RPL1A] gave a protein stability index of 1.8 ± 0.052.
For KKPRKPRQTKKAKAQAQ [PGD1], the protein stability index was 3.22 ± 0.062.
In the case of KKQAQKQTKLRKEKEKK [SMB1], the protein stability index is reported as 2.46 ± 0.3.
Sequence KKQNLSSHQRVFKLSTN [SWP82] has a protein stability index of 2.05 ± 0.068.
KKQPSILVGGTLKDYQI [SNF2] gave a protein stability index of 2.35 ± 0.11.
With KKQVHVYRFVTENAIEE [ISW2] the protein stability index was 1.87 ± 0.12.
In the case of KKRKAGRPRGRPKKVKL [SNF2], the protein stability index is reported as 2.96 ± 0.21.
Work on KKRKNKSSGSSMATPTH [ROX3] yielded a protein stability index of 2.96 ± 0.051.
Work on KKRREYFPEGYNNKVGV [SIR2] yielded a protein stability index of 2.54 ± 0.2.
KKSLEEDDEFEDFPIDT [SEM1] showed a protein stability index of 2.66 ± 0.14.
KKSRLGNSFHLMRELLK [PRP8] gave a protein stability index of 2.39 ± 0.049.
With KKTKFLSPSGHKTFLVA [RPL32] the protein stability index was 1.44 ± 0.27.
Work on KKVNYKVTSYDITGDIR [ISW2] yielded a protein stability index of 2.83 ± 0.068.
With KKVQALQSDKNFLDNCL [ITC1] the protein stability index was 2.83 ± 0.046.
Sequence KLAAIVEIIDQKKVLID [RPL14A] has a protein stability index of 2.91 ± 0.072.
With KLAKNLQIGDVVERHLE [RPO31] the protein stability index was 3.31 ± 0.069.
KLASTLEKISSSNKDLE [SMC4] showed a protein stability index of 2.96 ± 0.038.
For KLDIISDPESERPAIEF [RPN14], the protein stability index was 3.03 ± 0.04.
With KLDKQINMADRSLGLQQ [POP6] the protein stability index was 3.02 ± 0.16.
In the case of KLDQDDEIYIPINGNEA [CSI1], the protein stability index is reported as 3.19 ± 0.09.
Sequence KLEKLRNEKRMFLEFQS [SMC2] has a protein stability index of 3.15 ± 0.12.
In the case of KLGIESKQPNSAIRKCV [RPS23A], the protein stability index is reported as 3.02 ± 0.12.
For KLHEFYLLISKENKKRK [IRR1], the protein stability index was 2.89 ± 0.051.
Sequence KLKECPFDMGGYFIING [RPB2] has a protein stability index of 2.72 ± 0.073.
Sequence KLKNNASRSQLEKGEIE [YJL039C/NUP192] has a protein stability index of 2.66 ± 0.083.
For KLLAISKFNNADDVFTG [RPC31], the protein stability index was 2.92 ± 0.13.
In the case of KLLAKELEEQESESERK [SMC2], the protein stability index is reported as 2.46 ± 0.16.
For KLLNDLALENGEITKTE [NUT1], the protein stability index was 2.78 ± 0.2.
With KLLTPQDMEAAKEVYKI [GAL11] the protein stability index was 3.43 ± 0.084.
In the case of KLNTFENDLLQEFDSEL [SMC3], the protein stability index is reported as 3.03 ± 0.1.
Work on KLPKVYKRSIVRNYKPL [SWI1] yielded a protein stability index of 2.89 ± 0.074.
In the case of KLRSELGYKDTSVIQDL [BRR2], the protein stability index is reported as 2.69 ± 0.072.
With KLSKVQLYEDLCRYEDT [MED4] the protein stability index was 3.32 ± 0.11.
Sequence KLSSAENANADLENKFN [YIL149C/MLP2] has a protein stability index of 3.07 ± 0.062.
With KLTVCFDDILKVGAEMM [MED2] the protein stability index was 1.89 ± 0.11.
In the case of KLWAEIIVKILYYRPHI [GRR1], the protein stability index is reported as 1.19 ± 0.15.
KLYKTPIPIPAFADRLG [PRE10] gave a protein stability index of 1.04 ± 0.18.
Work on KMENLMRLIKRVRAESL [YJL039C/NUP192] yielded a protein stability index of 1.32 ± 0.23.
Sequence KMLKIWTMAFRTMDDIK [ECM29] has a protein stability index of 2.06 ± 0.12.
Work on KMLMNLHKEQWQSGLKM [RPN11] yielded a protein stability index of 2.4 ± 0.039.
Work on KNGALVSNILSAFKFIH [YJL039C/NUP192] yielded a protein stability index of 1.51 ± 0.065.
KNHTHNLPGNITVVLGV [RRP4] gave a protein stability index of 2.32 ± 0.17.
Work on KNLIQLISLKLLTFEVT [SRB8] yielded a protein stability index of 1.24 ± 0.13.
KNLVKVLESRVNARDIP [CSN12] showed a protein stability index of 2.03 ± 0.2.
KNNILGSNVLKSGKTIV [RRP43] gave a protein stability index of 3.04 ± 0.043.
With KNNLLIPDLSIQNDIYL [RPN12] the protein stability index was 2.98 ± 0.035.
KNPRVTKEYLVQNLRSW [CSN9] showed a protein stability index of 3.16 ± 0.11.
Sequence KNTQSPQTPLVEPVTER [SNU114] has a protein stability index of 2.72 ± 0.097.
KNYPEYFLKVTFLKYFG [IRR1] gave a protein stability index of 1.22 ± 0.14.
Work on KPALKVSKEGLYQLVDI [YMR129W/POM152] yielded a protein stability index of 3.14 ± 0.074.
KPGQNNRQQKKRRFDPS [RRP6] gave a protein stability index of 3.21 ± 0.13.
Work on KPGSKPEKTSTELVDGR [SIR3] yielded a protein stability index of 3.26 ± 0.089.
Work on KPLFDFGKTGDQKETKK [YOR098C/NUP1] yielded a protein stability index of 2.79 ± 0.22.
For KPMTAYARADTHFLLNI [RRP6], the protein stability index was 2.34 ± 0.06.
KPQLKFKSPIDNSESHP [RRP6] gave a protein stability index of 2.89 ± 0.084.
KPSFSFPGKPVDVQAPT [YOR098C/NUP1] showed a protein stability index of 3.12 ± 0.055.
KPTSHKQLQQPKSSPLK [SIR4] gave a protein stability index of 3.04 ± 0.039.
KQERSKQERLKENEESL [PRP28] showed a protein stability index of 3.22 ± 0.13.
Work on KQFDSIFNSNKAKIIPG [SIR4] yielded a protein stability index of 2.69 ± 0.064.
With KQQDAEELFTQLFHSMS [UBP6] the protein stability index was 3.03 ± 0.088.
KQTGRDQMVVGWYHSHP [RPN11] gave a protein stability index of 2.4 ± 0.15.
In the case of KQVQISHHLKADTIDHD [YGL172W/NUP49], the protein stability index is reported as 2.79 ± 0.065.
For KRAEKKAKERLQALKAN [SNF2], the protein stability index was 1.73 ± 0.12.

Same assay, conditions: ubr1∆
For KEIRAFDKLLNIPRREL [SRB4], the protein stability index was 1.95 ± 0.071.
KELEPWDLQLQEKESQI [SMC4] gave a protein stability index of 3.36 ± 0.12.
